From publication PMC5856483 come the findings set out here.

The target of this experiment is FITC-Dsn1 560-572 synthetic peptide (S. cerevisiae) (S. cerevisiae). Nature of the experiment: fluorescence polarisation. A general note: Polarisation of emitted light reports the rotation of a fluorescent probe.

For orientation: Kd means a measure of binding affinity in units of concentration. A lower Kd goes with a tighter complex. For the substance “S. cerevisiae Spc24 155-213/Spc25 132-221 heterodimer (from UniProt Q04477 155-213; P40014 132-221) (complex)”, the Kd was 12 µM.
